Measurements reported in the DeepSol protein solubility set.

Assay: soluble on expression in E. coli; label from the status in PepcDB or PDB records

Sequence	soluble on expression in E. coli
MTRQSLQQAAESRRSIYSLNKNLPVGKDEVVQIVEHAVLHTPSSFNSQSARVVVLFGEEHDKVWQFVEDALRAVVPADSFEPTAQKLNLFKAGAATILFYEDQNVVKGLQEQFPAYAANFPVWADQANAMVQYAVWTTLAAVGVGANLQHYNPLPDAAIAKAWNIPENWLLRAQMVIGGIEGAAGEKTFEPVAERLKVFGA	not soluble
MTRTNKWTEREGKADPKYFSHTGNYGESPNHIKKQGSGKGNWGKPGDEIDDLIDNGEIPPVFKKDRRGSNLQSHEQKFENVQKE	not soluble
MTRYLRLSGLEPFVLTPDIPFVNVGERTNVTGSARFRKLITNRDYAAALEVARDQVQNGAQILDVNMDEGLIDSKAAMVEFLNLIASEPDIARVPLMIDSSKWEVIEAGLKCVQGKPVVNSISLKEGEESFRRQAGLCLAYGAAVVVMAFDEEGQADSFARKTTICARAYRILVEEVGFPPEDIIFDPNVFAVATGIEEHDNYGVDFIEAARWIRANLPHAHVSGGVSNLSFSFRGNEPVREAMHAVFLYHAIRAGMDMGIVNAGQLAVYDQIDPDLREACEDVVLNRKPKQGGTATERLLALAER	not soluble
MTSAYFGVAGGSNTGAQSAYFGVGGGPAGGGGGASKVGGGAAPPPGTSVYMGAGGGGGGGGAQSAYFAVGGAPVGGAPAAVSIGAPPPAGGGGASTMTALGGAPSGASTMTAVGGAPRGASTMTAVGGVPSGASTMTAVGGAPTGASTMTAVGGAPTGASPMTAFGGAPTGASTMTAVGGAPTGASTMTAVGGAPTGASTMTAVGGAPTGASTMTAVGGAPTGASTMTAVGGVPTGASTMTAIGGAPSGASTMTAVGGAPRGASTMTAVGGAPTGASTMTAVGAAPGGASTMTAVGGAPRGASTMTAVGAPGGGASALGAAPPAGSMSGGGGGATSGYFGVGQGVMGGGGAVGQSAYFGVGGGAAGGAKTGGGGGGGIPGQSMYMGAGGGGGAGGGATSAYFAPK	not soluble
MTSESSGNTGGAMDEPTEKKPKEFSDLPDHVLQRIMEKVEPSDRLSVRKVNRNLRQLIDEMDPGFRSISVNISTRKGVLVSYDNGSFIHYQQVYDDCEMFGRKEKKRFFNENAVKMAINDVIRVMSHPMSNVKLFRTGIPTKPEMERSRSTGKQWKRAKILCANRGFMEVSMKHLCHFSRVVVNQARTSMQTAIEIRDILLKSTSIEYVDFCSRDGVTIDAVRVFIPETANVNQTTDYDNFTFSSSMCSLNFKKKR	not soluble
MTSFTGITAVANATNEMAMFKQAMKEVAAHPEWMSSRQIERQRWNPYSMEGGSTCAISGENFAIVASDTRMTQNDINILTRDAEKIQILNDNIILTTSGFYGDVLQLKKVLQSRLHKYRFDYRSDMSVDLCAELLSRNLYYRRFFPYYTGAILAGIDEHGKGAVFSYDPIGCIERLGYSASGAAEPMIIPFLDCQIGHVTLSEGYERPELTLDRAISLMKDSFRGAAEREISTGDKIHLVIAEAGKPVVVKFLPLRED	not soluble
MTSITPVTLANCEDEPIHVPGAIQPHGALVTLRADGMVLAASENIQALLGFVASPGSYLTQEQVGPEVLRMLEEGLTGNGPWSNSVETRIGEHLFDVIGHSYKEVFYLEFEIRTADTLSITSFTLNAQRIIAQVQLHNDTASLLSNVTDELRRMTGYDRVMAYRFRHDDSGEVVAESRREDLESYLGQRYPASDIPAQARRLYIQNPIRLIADVAYTPMRVFPALNPETNESFDLSYSVLRSVSPIHCEYLTNMGVRASMSISIVVGGKLWGLFSCHHMSPKLIPYPVRMSFQIFSQVCSAIVERLEQGRIAELLRVSTERRLALARRARDADDLFGALAHPDDGIAALIPCDGALVMLGGRTLSIRGDFERQAGNVLQRLQRDPERDIYHTDNWPQPSEDSPDGGDCCGVLAIRFHRQESGWIFWFRHEEVHRIRWGGKPEKLLTIGPSGPRLTPRGSFEAWEEVVRGHSTPWSETDLAIAEKLRLDLMELCLNHALEHHHHHH	soluble
MTSKTSESGTGTQSTIVQLRNLPDLTEISHLEIDAPVVEILKKTVLFQLNSLNICISNFALDELVNLVTVQMDGMFRNLHNLTLLQRRSQASQADLKLLLREFNLDAPSLYQQFQASEFIKSKHSTEYEKLMSWSSLAALPHNEEDEEDELNNIEEQQNEINVLLPPSNPLEKQIPSWLPNFPPDHTYKFTPEFNHPITDLKTIKKEIVKESQESEKALLNLNKSLSHISSASNTPQPPGLDDEDAIEQQLEIWGNALEERKPTITEKSFNENNIEQYAKYRVELARERVTKFEVNQLKRTKNPFLKISETLYLPESPHQSHKTIQKTIELQFRKSMTLFMHNLPKVQKLKKEKIRMAKEERAKSLKRRQEELISQRTKREQDEGHDLELLLNNEHARDAADDTTTPNALNNSTIVINTNAEDEDDDINLFGILGSSEDENEMSSMPAENLVAESEPPTMTAQDTTNTTPVAHNTTNIDATTSHSPHSTPNENAPTSPPADIATDHDITM	soluble
MTSNKNVKTLDEAIRELTRAKAILDSARPTAVNLVWATSRMLTLAKNAVENGNAKTINELIDLMKVEAKRIFDEEYDAEIQMGLYGLEKLNDSDT	not soluble
MTSSIKSDAPQFLLDLDNCSSLPPTPPKTASPGNSKMKGFNISDLCLDLDSSTSSSCSVSPASSFHTRSESVGQQQSGRNSPVSSSTESPTKRPKYSYNALIAMAIQSSPFKSLRVSEIYKYISSNFSYYKNQKPLQWQNSVRHNLSLHKEFRKVRTLDGKGSYWAMTADLGTDVYISNNCGKLRRQKSKVAKFPPMQQHFPIPQLPTQNIHQLCMQNPQILATLLQNMYLQNMQNLQNIPMVPGFPIIPVPINPTSFHFPKSS	not soluble
MTSSNKILLVFLLFFCIQDVASENGLDVSALSGKSKKFFFDMTKQVMGVPSLKPENLAAQAFFRSFLDKYTKLDDKVKNDMTQHVPKATKLFDAAAKKYNIDPSSAFKMLSTFFETFKKGASSEMASKGLQMAGKLLGGKGSGGGGGLLGFLGTRR	not soluble
MTSSTETTSTTPQVAVNDIGNEEAFLAAIDETIKYFNDGDIVDGVIVKVDRDEVLLDIGYKTEGVIPSRELSIKHDVDPNEVVKVGDEIEALVLQKEDKEGRLILSKKRAQYERAWGTIEKIKEEDGIVTGTVIEVVKGGLILDIGLRGFLPASLVEMRRVRDLQPYVGKELEAKIIELDKNRNNVVLSRRAWLEQTQSEVRQTFLTTLQKGQVRSGVVSSIVNFGAFVDLGGVDGLVHVSELSWKHIDHPSEVVEVGQEVTVEVLDVDMDRERVSLSLKATQEDPWQQFARTHQIGQVVPGKVTKLVPFGAFVRVDEGIEGLVHISELAERHVEIPEQVVQVNDEIFVKVIDIDLERRRISLSLKQANEAFGGDPASVEFDPTLYGMAASYDDQGNYIYPEGFDPETNDWLEGFESQREVWETQYAEAQQRFEQHQAQVIKSREADAQAEAEGAAAPAAGGSGAGVSGGSYSSESDDNSGALASDEALAALREKLAGGQSLEHHHHHH	soluble
MTSTSFATIELLHDPRGFATLWLNRADKNNAFNAQMIRELILALDQVQGNAGLRFLLIRGRGRHFSAGADLAWMQQAADLDYNTNLDDARELAELMYNLARLKIPTLAVVQGAAFGGALGLISCCDMAIAAEDAQFCLSEVRIGLAPAVISPFVVQAIGERATRRYALTAERFDGRQARHIGLIAECYPVADLEHQTLGWIDNLLLNSPQAMRISKELLREVGSGELTPALRRYCESAIARIRTSAEGQEGLRAFLQKRTPGWQQRDDEPAALEDRQKDSQR	not soluble
MTSVLNSFWLGIKVPLRKAVYWLQYNLLKRKRNAFNILMAEETIDYIVKHECSVCRYGDGEIDMITCLKEGFDESRKSDFQTYDEKLAWRLKQILGNGSDEELNLIVCIPYVWKSHRSLSFTARRFIERSFVNNREMIFASIHPTRLYGDSYFTRFYIDARNKKKKGSYIQHCRQIWQGRDLCIIEGEQSRLGVGNDLFDNAQSIERILCPALDAFAKYDEIMKAACTVNKAKLVLIALGHTATVLAYDLAEVGYQAIDIGHIDIEYEWFLMRAPKKVPVPHKYVNEVPEGRQFSEERNKEYLSQIIYSVK	not soluble
MTTAPAKISEYTVSTPDRTVASVRADGIVAATPLGSHGYAADAGGPHLAPGVSAAAVVPVSPFRVDRTNWVVCPPVSVTVARDETTVELHADGHAHGRVPVDSPVTLSWGTPLPIAVVSHAGTHGD	soluble
MTTFRQHRWQSFLQGYEQRARILISCPDRPGIVAAVTSFLYEQGANIVESSQYSTDPEGGTFFLRLEFDCPNIAERKEEIEAAFAPIAAEFEMRWQLRLHNDIRRIAIFVSKAEHCLLELLWQWQAGELIADIALVISNHPDLRETVESFGIPYVHIPVTKETKADAEAEQIRLLRDYQIDTIVLARYMQILSPAFVAEFSGRIINIHHSFLPAFIGARPYERAYERGVKLIGATSHYVTDDLDEGPIIEQDVARVDHRHHPDDLKRIGRLIEKTVLARALRWHLEDRVIIHGNKTIVFY	soluble
MTTKDEVKTLWKLCFNDSDEFTDLYFKMRYKDEVNRVIREDGKIISALQMIPYPMTFCDEVISTSYISGACTHPDYRKHGAMKRLLKETHRCMYEDGVLLASLIPAEEWLFGYYARSGYAPVFGYAVEQVRVDRLCPAPGCRIEVCEFPGVEHYHYFDSRMHGRRSCIQHPKEDFLVIMADLRLGNGKLLVAWEADKIVGMAFTVMGDDTLYIKELLADTDAVQDTLLYEAAHIYKVQRMDYFIPSSADTLFLGMARVIRAEELLKVFAHKYPASELYIHIEGDEAIQENNGYYTVRDGFCFRERVPEKKYHTYTLDGFTRLLLEAEHPYMSLMLN	soluble
MTTNPIELESCIIDQIRCPECALTCLQKNIYRHMTQIHNWTTEDCQELIAAIKSEKKSRASSTSFVCCHCRMIFRSVKHLVQHKKMCTEQPQHDNEHLDVYIDEMIVEGEEEVVGINEYDINETKESTQKPSTSSGDSFEMNIPPHRQASRPIQPHHLTQECQIATIIEKPSKFSLMQLPGKYRGCNLKCPECSSTSESLDEFLLHCRQEHMSHDQKFNLEREFFQSRDQFKEWFDQRQEDTCTSLTKRTGHAGETLYRCHRVGKYQSVAKSRKSNPRKIDQTCTAYLKVTTEEDGSTWATGCFTHIGHDLDHKLLWLTESQEKYVRELIDLGWTSDQIFFFIRNEYKDYECKLKYISKNDIRNITVRYNREREKLGFLTDTAKSSAIPISLKERRAVAADSTKEPREEDDDEVKAKIPRMQSKPDNIEKATTSENNSAKHREQVVDSETAEEDEYINVVDVDTMPPNDAGKITIGLNF	not soluble
MTTPPPRMLPSGDTAITVEFGRDISDESNRRVLALDRKLKQAPIAGILETVPTYRSLLVHYDPETIGFGALSDQLTALAHTSDESETVAKRRWRIPVCYGGEHGIDLEDAAQALNITPDALVARHAAGDYRVAMIGFTPGWSYLSGLDPALAMPRRQAPRLHTPAGTISVGGIQTGIQCLAGPSGWHLLGRTPVRTYQLHREPIFLLEPGDAISFAQIDAKEFAERDDAASHGEVVAELLSALEHHHHHH	soluble
MTTTIEVGMLGLGTVGSGVVERLTRSAAKIEQTQGIRLHLAAVAVNHLNAPRTVQLPIGTRLTDSLTNVVCDRKIQLVIEVMGTVATAKKAIVAALNQGKAVVTANKDLIATAGPELAALAKKQGCDLFYEASVAGGIPILRTLTDSYVTDNVQAVSGIINGTANYMLSAMATGQSYEQALATAQATGYAEADPTNDVAGIDAAYKLMILSRFAFGQELSLPQIAPTGITHLSASVCRLAAENGWQIKLLAQIQRHGSGLYCRVAPVAVPVDQPLSQINGVQNAVAVQSEAIGTSLYTGPGAGSTATANSVLNDVLVAAKHLINGYRMIRNQKRSVSLTVTRFDQLPQTYLGIGPVAPEAVKYYANEADFSVKTIADDCYQITGLSAVKRKKLRANLPLTLIPIAGTTDWKQVTENSITSPINVAILEHHHHHH	soluble
